Measured values published in article PMC9541495, “Understanding the interaction of 14‐3‐3 proteins with hDMX and hDM2: a structural and biophysical study” (The Febs Journal, 2022).
[ ]: non-standard residue; d: D form. pS = N[C@@H](COP(=O)(O)O)C(=O)O; FAM = 5,6-carboxyfluorescein; Ahx = NCCCCCC(=O)O

T1: 14‐3‐3τ (human, UniProt P27348 1-245)
T1 construct: 14-3-3 tau/theta, human, full-length protein from the pProEx HTb-His-14-3-3 construct; Written as the protomer; tag removal is told only for the ∆C proteins; also called τ/θ; source: E. coli BL21(DE3), purified (Ni2+-NTA, dialysis)
T1 sequence (looked up): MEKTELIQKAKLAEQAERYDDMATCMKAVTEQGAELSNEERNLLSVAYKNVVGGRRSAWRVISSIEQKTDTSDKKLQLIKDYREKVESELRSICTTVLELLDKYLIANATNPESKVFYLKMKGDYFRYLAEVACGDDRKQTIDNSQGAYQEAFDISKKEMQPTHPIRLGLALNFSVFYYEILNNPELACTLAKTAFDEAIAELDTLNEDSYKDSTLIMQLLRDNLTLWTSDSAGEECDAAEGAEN

T2: 14‐3‐3ε (human, UniProt P62258 1-255)
T2 construct: 14-3-3 epsilon, human, full-length protein from the pProEx HTb-His-14-3-3 construct; Written as the protomer; tag removal is told only for the ∆C proteins; source: E. coli BL21(DE3), purified (Ni2+-NTA, dialysis)
T2 sequence (looked up): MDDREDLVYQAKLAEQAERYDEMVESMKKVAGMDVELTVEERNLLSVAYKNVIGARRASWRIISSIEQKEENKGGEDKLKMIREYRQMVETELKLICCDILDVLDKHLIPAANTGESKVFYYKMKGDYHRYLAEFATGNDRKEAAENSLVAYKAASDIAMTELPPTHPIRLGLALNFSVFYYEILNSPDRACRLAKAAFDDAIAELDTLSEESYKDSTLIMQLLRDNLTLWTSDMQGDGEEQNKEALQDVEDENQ


Assays:
[1] = biological target: T1, 14‐3‐3τ; assay: fluorescence polarisation; fluorescence anisotropy, direct titration: 14-3-3 protein titrated (1/2 dilution series) against 50 nM FAM-Ahx tracer peptide; 10 mM HEPES, 150 mM NaCl, 0.1% Tween 20, 0.1% BSA, pH 7.4; 384 well plates, triplicates; protein concentration as 14-3-3 monomer; 1:1 fit, biphasic curves fitted as two separate 1:1 events (Kd1, Kd2); details: both partners purified
[2] = biological target: T2, 14‐3‐3ε; assay: as above; details: both partners purified

| Kd [1] | Kd [2] | Binder |
| --- | --- | --- |
| 108 ± 6 µM | 53.4 ± 2.9 µM | {FAM-Ahx}-SKLTHSL[pS]TSDITAI-NH2 (hDMX (human double minute 4 protein, hDM4), human, residues 335-349; Tracer form used in the FA assays; source: synthetic peptide (Fmoc SPPS, HPLC purified)) [FAM‐Ahx‐hDMX_(335‐349) ^pSer342] |
| 1.2 ± 0.2 µM | 2.7 ± 0.2 µM | {FAM-Ahx}-DCRRTI[pS]APVVRPK-NH2 (Tracer form used in the FA assays; source: synthetic peptide (Fmoc SPPS, HPLC purified)) [FAM‐Ahx‐hDMX_(361‐374) ^pSer367] |
| 29.3 ± 2.4 µM | 23 ± 1.2 µM | {FAM-Ahx}-SRRRAI[pS]ETEEN-NH2 (hDM2 (human double minute 2 protein), human, residues 160-171; Tracer form used in the FA assays; also called hDM2_(160‐171) ^Ser166; source: synthetic peptide (Fmoc SPPS, HPLC purified)) [FAM‐Ahx‐hDM2_(160‐171) ^pSer166] |
| > 250 µM | > 260 µM | {FAM-Ahx}-QRKRHK[pS]DSISLS-NH2 (hDM2 (human double minute 2 protein), human, residues 180-192; Tracer form used in the FA assays; source: synthetic peptide (Fmoc SPPS, HPLC purified)) [FAM‐Ahx‐hDM2_(180‐192) ^pSer186] |
